PMC3694354 (Biochemistry, 2008)
Each block holds one molecule with its values, some of them ahead of it.

Columns and labels:
[1] = target: T1, 4-chlorobenzoate:CoA ligase (CBL; CBAL) (Alcaligenes sp. AL3007, UniProt Q8GN86); assay: coupled AMP-forming assay, inhibition kinetics; format: biochemical
T1 sequence (Q8GN86 1-504): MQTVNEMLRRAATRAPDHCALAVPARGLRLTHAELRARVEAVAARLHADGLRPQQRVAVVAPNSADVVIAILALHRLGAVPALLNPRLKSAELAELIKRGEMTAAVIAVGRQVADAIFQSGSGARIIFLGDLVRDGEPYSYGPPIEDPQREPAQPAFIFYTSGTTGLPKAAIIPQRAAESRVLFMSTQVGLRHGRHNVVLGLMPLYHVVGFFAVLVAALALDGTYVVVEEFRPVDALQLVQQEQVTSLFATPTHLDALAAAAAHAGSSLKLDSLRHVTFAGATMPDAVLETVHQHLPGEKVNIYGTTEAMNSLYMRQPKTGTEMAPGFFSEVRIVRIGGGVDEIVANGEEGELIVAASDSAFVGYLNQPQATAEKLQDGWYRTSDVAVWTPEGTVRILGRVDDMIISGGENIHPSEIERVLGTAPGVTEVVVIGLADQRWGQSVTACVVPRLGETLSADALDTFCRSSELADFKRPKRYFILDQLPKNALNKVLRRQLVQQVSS

[2] = target: T1, 4-chlorobenzoate:CoA ligase (CBL; CBAL); assay: direct spectrophotometric assay at […] nm, inhibition kinetics; format: biochemical
[3] = substrate: CC(C)(COP(=O)(O)OP(=O)(O)OC[C@H]1O[C@@H](n2cnc3c(N)ncnc32)[C@H](O)[C@@H]1OP(=O)(O)O)[C@@H](O)C(=O)NCCC(=O)NCCS; assay: coupled AMP-forming assay, initial velocity; format: biochemical, Alcaligenes sp. AL3007; conditions: 3.5 mM ATP, 4-methylbenzoate varied, 15 mM MgCl2, pH 7.5, 25 °C
[4] = substrate: Nc1ncnc2c1ncn2[C@@H]1O[C@H](COP(=O)(O)OP(=O)(O)OP(=O)(O)O)[C@@H](O)[C@H]1O; assay: coupled AMP-forming assay, initial velocity; format: biochemical, Alcaligenes sp. AL3007; conditions: 200 μM 4-methylbenzoate, CoA varied, 15 mM MgCl2, pH 7.5, 25 °C
purified protein = substrate: Cc1ccc(C(=O)O)cc1; assay: purified protein; conditions: 3.5 mM ATP, CoA varied, 15 mM MgCl2, pH 7.5, 25 °C

Molecule: CC(C)(COP(=O)(O)OP(=O)(O)OC[C@H]1O[C@@H](n2cnc3c(N)ncnc32)[C@H](O)[C@@H]1OP(=O)(O)O)[C@@H](O)C(=O)NCCC(=O)NCCSCC(=O)c1ccc(Cl)cc1 [4-CP-CoA, 4-chlorophenacyl-CoA]
- Ki [1]: 21 ± 8 µM

- Ki [1]: 45 ± 10 µM
Molecule: CC(C)(COP(=O)(O)OP(=O)(O)OC[C@H]1O[C@@H](n2cnc3c(N)ncnc32)[C@H](O)[C@@H]1OP(=O)(O)O)[C@@H](O)C(=O)NCCC(=O)NCCSCc1ccc(Cl)cc1 [4-chlorobenzyl-CoA]

Molecule: O=P(O)(O)OP(=O)(O)O [PPi]
- Ki [1]: 95 ± 10 µM

- Ki [2]: 120 ± 20 µM
Molecule: Nc1ncnc2c1ncn2[C@@H]1O[C@H](COP(=O)(O)O)[C@@H](O)[C@H]1O [AMP]

B1: 4-chlorobenzoate:CoA ligase (CBL; CBAL) (Alcaligenes sp. AL3007) (protein)
chain: T1 sequence (Q8GN86 1-504)
- Km [3]: 160 ± 20 µM
- kcat [3]: 8.0 ± 0.6 s⁻¹
- Km [4]: 180 ± 15 µM
- kcat [4]: 8.2 ± 0.3 s⁻¹
- Km (purified protein): 30 ± 5 µM
- kcat (purified protein): 8.0 ± 0.6 s⁻¹
